Assay [1] has as its target RSV F protein of subtype B (18537) on recombinant mKate-RSV (Respiratory syncytial virus subtype B …, UniProt P13843 26-574). Put plainly: cell-based or functional assay.
Assay [2] deals with T1, RSV F protein of subtype A (strain A2) on recombinant mKate-RSV (Respiratory syncytial virus subtype A …, UniProt P03420 26-574). The experiment in a line: cell-based or functional assay.
For assay [3], the target named is T2, RSV F ectodomain stabilized in the postfusion conformation (F ΔFP), subtype B (Respiratory syncytial virus subtype B, UniProt P13843 26-109; P13843 147-524).
T2 construct: extracellular domain; trimer; also called Postfusion subtype B
Put plainly: BLI, IgG on AHQ sensors, 100 nM antigen. Background: BLI is a label-free optical method that tracks binding on a fibre tip over time.

The target of assay [4] is T3, RSV F ectodomain stabilized in the postfusion conformation (F ΔFP), subtype A (Respiratory syncytial virus subtype A, UniProt P03420 26-109; P03420 147-524).
T3 construct: extracellular domain; trimer; also called Postfusion subtype A; Postfusion RSV F
Put plainly: BLI, IgG on AHQ sensors, 100 nM antigen.

Assay [5] concerns the target human metapneumovirus (HMPV) F protein on GFP-expressing hMPV (NL/1/00, A1 sublineage) (human metapneumovirus). The experiment in a line: cell-based or functional assay.
The target of assay [6] is T1, RSV F protein of subtype A (strain A2) …. Put plainly: cell-based or functional assay. The source holds these as a separate data set.

B1: ADI-14547 (antibody, V domains shown)
VH: EVQLLESGPVLVKPTETLTLTCTVSGFSLANPDVAVAWIRQPPGKALEWLAHIFSGDETSYTTSLQNRLTISKDTSKSQVVLIMTKMDPRDTGTYFCARVLTTWHGPDYWGQGTTVTVSS
VL: ETTLTQSPLSLPVTLGQPASISCRSDQSLVYHNGNTYVSWFHQRPGQSPRRLIYKVSIRDSGVPDRFSGSGSGTDFALKISRVEAEDLGVYYCMQGSHWPHTFGQGTKVDIK
notes: IgG; also called Antibody Number 107
B1: the “Neut IC50 (µg/ml) subtype B” value in assay [1] came out at 0.252 µg/mL. In assay [2], the “Neut IC50 (µg/ml) subtype A” value worked out at 0.198 µg/mL. Besides, the Kd in assay [3] was 0.269 nM; in assay [4], 0.169 nM.

B2: ADI-14448 (antibody, V domains shown)
VH: EVQLVESGGGLVKPGGSLRLSCAASGSSFRYSYMSWVRQAPGKGLQWVASISPSSTYTDYADSVKGRSTISRDHDKISLQVNSLRGDDTAVYYCVRHMNLVMGPFAFDIWGRGTMVTVSS
VL: QSVVTQPPSLSGAPGQRITISCTGSSSNIGAGYDVNWYQQLPGTAPKLLIYAKTNRPSGVPERFSGSESGTSASLAITGLQPEDEADYYCQSYDRIGMYVFGTGTKLTVL
For B2, the “HMPV-A1 IC50” value in assay [5] was determined as 0.05 µg/mL. In addition, the “RSV-A2 IC50” value in assay [6] amounted to 0.04 µg/mL.

B3: ADI-14554 (antibody, V domains shown)
VH: QVQLVQSGGGLVKPGGSLRLSCAASGFAFSNAWMSWVRQAPGKGLEWLGRIKSETDGGTTDYAAPVKGRFSISRDDSRNTLYLQMNSLESEDTAVYYCTTGPPYKYFDSTGYSVVDYWGQGTLVTVSS
VL: SYELTQPPSASGTPGQRVTISCSGSSSNIGSNYVYWYQQLPGTAPRLLIYSTNQRPSGVPDRFSGSQSGTSASLAISGLRSDDEADYYCAAWDDRMSGPVFGGGTKLTVL
notes: IgG
Turning to B3, in assay [1], the “Neut IC50 (µg/ml) subtype B” value was 0.787 µg/mL. Besides, the “Neut IC50 (µg/ml) subtype A” value in assay [2] worked out at 0.736 µg/mL. The Kd in assay [3] came to 0.197 nM; in assay [4], 0.388 nM.

B4: ADI-14539 (antibody, V domains shown)
VH: QVQLVESGGGVVQPGRSLRLSCAASGFAFRVYDIHWVRQAPGKGLEWVAVAWSDGRDEFYADSVKGRITISRDNSKNTVYLQMSSLRVADTAVYYCARDSGTLTGLPHDAFDVWGQGTTVTVSS
VL: DIQLTQSPSTLSASVGDRVTITCRASQSITTRLAWYQQKLGKAPKLLVYKASTLEIGVPSRFSGRGSGTEFTLTISSLQPDDFATYYCHHYNSYSWTFGQGTKVDIK
notes: IgG; also called Antibody Number 99
Consider B4, for which the “Neut IC50 (µg/ml) subtype B” value in assay [1] was 0.302 µg/mL. In addition, in assay [2], the “Neut IC50 (µg/ml) subtype A” value is 0.727 µg/mL. Further, the figures for the Kd in assay [3] and in assay [4] were 5.71 nM and 0.738 nM, respectively.

B5: ADI-14552 (antibody, V domains shown)
VH: EVQLLESGPELKKPGSSVKVSCKASADTFNGHSIAWVRQAPGQGLEWVGGFIPIFGKAYYAQNFQGTVTISADSSTRTVYMDLFNLRSEDTAVYYCARSRKNVIGDTSAWEHMYFYMDVWGTGTTVTVSS
VL: EIVLTQSPGTLSLSPGERVTLSCRASESINKNTYLAWYQQKPGQAPRLLIYGASSRATGIPDRFSGSGSGTDFTLTISRLEPEDSAVYYCQQYGRSMTFGGGTKVEIK
notes: IgG
With B5, the “Neut IC50 (µg/ml) subtype B” value in assay [1] was greater than 10 µg/mL. In assay [2], the “Neut IC50 (µg/ml) subtype A” value is greater than 10 µg/mL. Besides, the Kd in assay [3] stood at 1.11 nM; in assay [4] it was 1.27 nM.

B6: ADI-14441 (antibody, V domains shown)
VH: QVQLVQSGAEVKKPGSSVKISCKASGGTFNSQAIHWVRQAPGQDLEWMGNIIPGFGSPNSAQNFQGRVTFIADDSTGAAYMDLSSLKSEDTAVYYCATAGWFGESVHLDSWGQGTLVTVSS
VL: not shown
With B6, the “HMPV-A1 IC50” value in assay [5] was determined as 37.8 µg/mL. In addition, the “RSV-A2 IC50” value in assay [6] is greater than 25 µg/mL.

B7: ADI-14559 (antibody, V domains shown)
VH: EVQLLESGGGLVKPGGSLRLSCAASGFIFTNAWMSWVRQAPGKGLEWVGRIKRKTETGTTDYAPPVKGRFTISRDDSRSTLYLQMNSLKTEDTAVYYCTTGPPYQYYDSTGYSVVDYWGQGTLVTVSS
VL: SYELTQPPSASGTPGQRVTISCSGSSSNIGSNIGINYVYWYQQLPGTAPKLLIYSTNQRPSGVPDRFSGSQSGTSASLAISGLRSEDEADYYCAAWDDSLSGPVFGGGTKLTVL
notes: IgG; also called Antibody Number 119
In the case of B7, the “Neut IC50 (µg/ml) subtype B” value in assay [1] is 0.031 µg/mL. In assay [2], the “Neut IC50 (µg/ml) subtype A” value came out at 0.057 µg/mL. For the same molecule, the Kd worked out at 0.129 nM in assay [3] and 0.204 nM in assay [4].

B8: ADI-14560 (antibody, V domains shown)
VH: QVQLVQSGPELKKPGESLKISCKASGYSFTSFWIAWVRQMPGKGLEFLGIIYPGDADTRYSPSFQGQVTISADKSINTAYLQWNNLKASDTAMYYCARQTTMTPDAFDLWGQGTTVTVSS
VL: EIVLTQSPATLSLSPGERATISCRASQSVSSYLAWYQQKPGQAPRLLIYEASDRATGTPARFSGSGSGTDFTLTISSLEPEDFAVYYCQQRSNWGVGTFGQGTKVEIK
notes: IgG; also called Antibody Number 120
For B8, the “Neut IC50 (µg/ml) subtype B” value in assay [1] was greater than 10 µg/mL. Also, in assay [2], the “Neut IC50 (µg/ml) subtype A” value was greater than 10 µg/mL. The Kd is 0.329 nM in assay [3] and 0.874 nM in assay [4].

B9: ADI-14546 (antibody, V domains shown)
VH: QVQLVQSGAEVKKPGSSVKVSCTASGGSFSTNSIAWLRQTPREGLEWMGGIIPVFGAAKYAQKFQGRVTISADASTTTAYLELHNLRSEDTAVYYCARGISPRTNSDWNHNYFYYYMDVWGKGTTVTVSS
VL: ETTLTQSPGTLSLSPGERATLSCRASQSIFTIYLAWYQQKPGQAPRLLIYSASNRATGIPDRFSGSGSGTDFTLTISSLEPEDFAVYYCHHYGTSPHTFGQGTRLEIK
notes: IgG
In the case of B9, the “Neut IC50 (µg/ml) subtype B” value in assay [1] is greater than 10 µg/mL. Also, in assay [2], the “Neut IC50 (µg/ml) subtype A” value is greater than 10 µg/mL. Moreover, the Kd in assay [3] came out at 0.472 nM; in assay [4], 0.589 nM.

B10: ADI-14553 (antibody, V domains shown)
VH: QVQLVQSGTEVKKPGSSVNVSCKAVGGKFTSYNINWVRQAPGQGLEWMGRIIPTLGITYFAQKFQGRLTINADRSTSTAYMDLSSLRSDDTAVYYCARSNPVARDFWSGYSDDSSYAMDVWGQGTTVTVSS
VL: ETTLTQSPGTLSLSPGDRVSLSCRASQTVDKNYVAWYQQKPGQAPRLLIYGASKRAADIPDRFSGSGSGADFTLTISRLEPEDFAVYHCQQYGASAFSFGGGTKLEIK
notes: IgG
Take B10: in assay [1], the “Neut IC50 (µg/ml) subtype B” value was greater than 10 µg/mL. Besides, the “Neut IC50 (µg/ml) subtype A” value in assay [2] was greater than 10 µg/mL. The results for the Kd in assay [3] and in assay [4] were 117 nM and 67.1 nM, respectively.

B11: ADI-14561 (antibody, V domains shown)
VH: QVQLVQSGAEVKKPGSSVRVTCKASGGTVSDYAITWVRQAPGQGLEWMGGFIPMFGVAKDAEKFQGRVTLTGDKSTNAVYMELSSLTSEDTAVYYCARSKRLPAGLSTSDYYYYYLDVWGKGTTVTVSS
VL: EIVLTQSPGTLSLSPGEGATLSCTASQNVFRTHVAWYQQTPGQAPRLLIYGGSTRATGIPDRFSGSGSGTDFTLIISRLEPEDFAVYYCHHFGTTPWTFGQGTKVEIK
notes: IgG
For the molecule B11, the “Neut IC50 (µg/ml) subtype B” value in assay [1] was greater than 10 µg/mL. In addition, the “Neut IC50 (µg/ml) subtype A” value in assay [2] was greater than 10 µg/mL. The figures for the Kd in assay [3] and in assay [4] were 2.28 nM and 3.09 nM, respectively.

B12: ADI-14549 (antibody, V domains shown)
VH: EVQLVESGPALVKPTQTLTLTCTFSGFSLSSRRMCVSWIRQPPGKALEWLARIDWDDDKSYSTSLKTRLTIAKDTSKNQVVLTMTNMGPADTATYYCARTPIYDSSGYYLYYFDSWGQGTLVTVSS
VL: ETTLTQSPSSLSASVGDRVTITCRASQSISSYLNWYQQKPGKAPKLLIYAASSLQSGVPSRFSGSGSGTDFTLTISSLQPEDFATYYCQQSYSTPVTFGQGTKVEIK
notes: IgG
On to B12, for which, in assay [1], the “Neut IC50 (µg/ml) subtype B” value is greater than 10 µg/mL. The “Neut IC50 (µg/ml) subtype A” value in assay [2] is greater than 10 µg/mL. The Kd in assay [3] amounted to 2.49 nM; in assay [4], 0.326 nM.

B13: ADI-14501 (antibody, V domains shown)
VH: QVQLVQSGAEVKKPGSSVKISCKASGGTFKSQAIHWVRQAPGQGLEWMGNIIPTYGSPNFAQRFLGRVTFIADDSTGAASMDLYRLTSEDTAVYYCATAGWFGELVRFDSWGQGTLVTVSS
VL: DIVMTQSPATLSVSPGERATLSCRATESISSNLAWYQQKPGQAPRLLIYGASTRATGIPARFSGSGSGTEFTLTINSLQSEDFAVYYCQQYNNWPPLTFGGGTKVDIK
Turning to B13, in assay [5], the “HMPV-A1 IC50” value worked out at 31.4 µg/mL. Besides, the “RSV-A2 IC50” value in assay [6] is 12.4 µg/mL.

For orientation: Kd means the concentration at which binding is half-saturated. Low readings indicate tighter binding, high ones weaker binding.
